Assay results taken from publication PMC4707517.
pIC50, pKd: −log10 of the molar value.

Legend:
[1] = biological target: H1FL (H1 11-193 in Table 1, i.e. residues 1-193) S19C (mouse) (UniProt P10922); assay: fluorescence (de)quenching; settings: 150 mM KCl (20 mM KCl for four-way junction and 4WJDNA), room temperature pre-incubation for competition, buffer and pH not given (HI-FI assay, ref 23)
[2] = biological target: H1 1-121 (delta72) S19C (mouse) (UniProt P10922); assay: FRET; settings: internal amino-C6-dT; 150 mM KCl (20 mM KCl for four-way junction and 4WJDNA); room temperature pre-incubation for competition; buffer and pH not given (HI-FI assay, ref 23)
[3] = biological target: H1FL (H1 11-193 in Table 1, i.e. residues 1-193) S19C (mouse) (UniProt P10922); assay: FRET; settings: internal amino-C6-dT; 150 mM KCl (20 mM KCl for four-way junction and 4WJDNA); room temperature pre-incubation for competition; buffer and pH not given (HI-FI assay, ref 23)
[4] = biological target: H1 1-96 (delta97) S19C (mouse) (UniProt P10922); assay: FRET; settings: internal amino-C6-dT; 150 mM KCl (20 mM KCl for four-way junction and 4WJDNA); room temperature pre-incubation for competition; buffer and pH not given (HI-FI assay, ref 23)
[5] = biological target: H1 1-121 (delta72) S19C (mouse) (UniProt P10922); assay: FRET competition; settings: 150 mM KCl (20 mM KCl for four-way junction and 4WJDNA); room temperature pre-incubation for competition; buffer and pH not given (HI-FI assay, ref 23)
[6] = biological target: H1FL (H1 11-193 in Table 1, i.e. residues 1-193) S19C (mouse) (UniProt P10922); assay: FRET competition; settings: 150 mM KCl (20 mM KCl for four-way junction and 4WJDNA), room temperature pre-incubation for competition, buffer and pH not given (HI-FI assay, ref 23)
[7] = biological target: H1 1-96 (delta97) S19C (mouse) (UniProt P10922); assay: FRET competition; settings: 150 mM KCl (20 mM KCl for four-way junction and 4WJDNA); room temperature pre-incubation for competition; buffer and pH not given (HI-FI assay, ref 23)
[8] = biological target: H1 1-121 (delta72) S19C (mouse) (UniProt P10922); assay: fluorescence (de)quenching; settings: 150 mM KCl (20 mM KCl for four-way junction and 4WJDNA); room temperature pre-incubation for competition; buffer and pH not given (HI-FI assay, ref 23)
[9] = histone variant H2A.Z, mouse histones

NLE-Tri-H2A.Z trinucleosome gave a pKd [1, 9] of 10.64.

4WJDNA linear 30 bp showed a pKd [1] of 8.43.

“CGCATCGGAGAATCCCGGTGCCGAGGCCGCTCAATTGGTCGTAGACAGCTCTAGCACCGCTTAAACGCACGTACGCGCTGTCCCCCGCGTTTTAACCGCCAAGGGGATTACTCCCTAGTCTCCAGGCACGTGTCAGATATATACATCGATTGCATGTGGATCCGAATTCATATTAATGAT (double strand) [A3/30 nucleosome]” gave a pKd [2] of 7.98, a pKd [3] of 9.95 and a pKd [4] of 6.61.

For “ATCTAATACTAGGACCCTATACGCGGCCGCATCGGAGAATCCCGGTGCCGAGGCCGCTCAATTGGTCGTAGACAGCTCTAGCACCGCTTAAACGCACGTACGCGCTGTCCCCCGCGTTTTAACCGCCAAGGGGATTACTCCCTAGTCTCCAGGCACGTGTCAGATATATACATCGATTGCATGTGGATCCGAATTCATATTAATGAT (double strand) [S30/30-H2A.Z nucleosome]”, the pKd [1, 9] was 10.29.

In the case of “CGAGCCAGGCCTGAGAATCCGGTGCCGAGGCCGCTCAATTGGTCGTAGACAGCTCTAGCACCGCTTAAACGCACGTACGCGCTGTCCCCCGCGTTTTAACCGCCAAGGGGATTACTCCCTAGTCTCCAGGCACGTGTCAGATATATACATCCAGGCCTTGTGTCG (double strand) [S7/11 nucleosome]”, the pKd [5] was 8.49, the pKd [6] was 8.76 and the pKd [7] was 7.13.

In the case of LE-Tri trinucleosome, the pKd [8] was 10.33 and the pKd ([1]; stoichiometry 3 H1 per trimer) was 10.34.

Substance “AGGCCTGAGAATCCGGTGCCGAGGCCGCTCAATTGGTCGTAGACAGCTCTAGCACCGCTTAAACGCACGTACGCGCTGTCCCCCGCGTTTTAACCGCCAAGGGGATTACTCCCTAGTCTCCAGGCACGTGTCAGATATATACATCCAGGCCTTGTGTC (double strand) [A1/10 nucleosome]” has a pKd [5] of 7.36 and a pKd [7] of 6.85.

Substance “GATCTAATACTAGGACCCTATACGCGGCCGCATCGGAGAATCCCGGTGCCGAGGCCGCTCAATTGGTCGTAGACAGCTCTAGCACCGCTTAAACGCACGTACGCGCTGTCCCCCGCGTTTTAACCGCCAAGGGGATTACTCCCTAGTCTCCAGGCACGTGTCAGATATATACATCGATTGCATGTGGATCCGAATTCATATTAATGAT (double strand) [S31/30 nucleosome]” has a pKd [2] of 9.01, a pKd [3] of 10.32 and a pKd [4] of 7.06.

NLE-Tri trinucleosome was tested, and the pKd [8] was 10.20 and the pKd ([1]; stoichiometry 1 H1 per trimer) was 10.38.

For “ATCTAATACTAGGACCCTATACGCGGCCGCATCGGAGAATCCCGGTGCCGAGGCCGCTCAATTGGTCGTAGACAGCTCTAGCACCGCTTAAACGCACGTACGCGCTGTCCCCCGCGTTTTAACCGCCAAGGGGATTACTCCCTAGTCTCCAGGCACGTGTCAGATATATACATCGATTGCATGTGGATCCGAATTCATATTAATGAT (double strand) [S30/30 nucleosome]”, the pKd [1] was 10.41, the pKd [5] was 8.73 and the pKd [6] was 10.75. The pIC50 ([6]; competitor of S31/30 (10 nM), 1 nM H1) was 8.43 and the pKd [7] was 6.91.

With 4WJ15 four-way junction the pKd [1] was 10.46.

Work on “ATCCCTATACGCGGCCGCCCTGGAGAATCCCGGTGCCGAGGCCGCTCAATTGGTCGTAGACAGCTCTAGCACCGCTTAAACGCACGTACGCGCTGTCCCCCGCGTTTTAACCGCCAAGGGGATTACTCCCTAGTCTCCAGGCACGTGTCAGATATATACATCCGAT (double strand) [A18/1 nucleosome]” yielded a pKd [5] of 8.09, a pKd [6] of 9.87 and a pKd [7] of 6.68.

“TCGGGATACGCGGCCGCCCTGGAGAATCCCGGTGCCGAGGCCGCTCAATTGGTCGTAGACAGCTCTAGCACCGCTTAAACGCACGTACGCGCTGTCCCCCGCGTTTTAACCGCCAAGGGGATTACTCCCTAGTCTCCAGGCACGTGTCAGATATATACATCCTGTGCATGTATTGAC (double strand) [S17/13 nucleosome]” was tested, and the pKd [5] was 9.02, the pKd [6] was 9.64 and the pKd [7] was 7.58.
